# Where a chain is given by its changes, count along the chain named.
# B1: MOR13759 (antibody, human IgG1, kappa, V domains shown)
# VH: QVQLVQSGAEVKKPGESLKISCKGSGYSFTTTWVAWVRQMPGKGLEWMGIIYPGLSDTIYSPSFQGQVTISADKSISTAYLQWSSLKASDTAMYYCARVHIIQPPSAWSYNAMDVWGQGTLVTVSS
# VL: DIQMTQSPSSLSASVGDRVTITCRASQSISTYLNWYQQKPGKAPKLLIFGASNLQSGVPSRFSGSGSGTDFTLTISSLQPEDFATYYCQQSITELFTFGQGTKVEIKR
# notes: tested as IgG
# B2: MOR13761 (antibody, human IgG1, kappa, V domains shown)
# VH: B1 VH with T31Q, L55Q
# VL: B1 VL
# notes: tested as IgG
# B3: MOR13763 (antibody, human IgG1, kappa, V domains shown)
# VH: B1 VH with T31S, T32Y, L55Q
# VL: B1 VL
# notes: tested as IgG
# B4: MOR13762 (antibody, human IgG1, kappa, V domains shown)
# VH: B1 VH with T31N, L55Q
# VL: B1 VL
# notes: tested as IgG
# Biological target: T1, Human HER3, endogenous, on human cancer cell lines (SK-Br-3, MCF7, BT-474) (human, UniProt P21860 20-1342)
# T1 sequence (P21860 20-1342): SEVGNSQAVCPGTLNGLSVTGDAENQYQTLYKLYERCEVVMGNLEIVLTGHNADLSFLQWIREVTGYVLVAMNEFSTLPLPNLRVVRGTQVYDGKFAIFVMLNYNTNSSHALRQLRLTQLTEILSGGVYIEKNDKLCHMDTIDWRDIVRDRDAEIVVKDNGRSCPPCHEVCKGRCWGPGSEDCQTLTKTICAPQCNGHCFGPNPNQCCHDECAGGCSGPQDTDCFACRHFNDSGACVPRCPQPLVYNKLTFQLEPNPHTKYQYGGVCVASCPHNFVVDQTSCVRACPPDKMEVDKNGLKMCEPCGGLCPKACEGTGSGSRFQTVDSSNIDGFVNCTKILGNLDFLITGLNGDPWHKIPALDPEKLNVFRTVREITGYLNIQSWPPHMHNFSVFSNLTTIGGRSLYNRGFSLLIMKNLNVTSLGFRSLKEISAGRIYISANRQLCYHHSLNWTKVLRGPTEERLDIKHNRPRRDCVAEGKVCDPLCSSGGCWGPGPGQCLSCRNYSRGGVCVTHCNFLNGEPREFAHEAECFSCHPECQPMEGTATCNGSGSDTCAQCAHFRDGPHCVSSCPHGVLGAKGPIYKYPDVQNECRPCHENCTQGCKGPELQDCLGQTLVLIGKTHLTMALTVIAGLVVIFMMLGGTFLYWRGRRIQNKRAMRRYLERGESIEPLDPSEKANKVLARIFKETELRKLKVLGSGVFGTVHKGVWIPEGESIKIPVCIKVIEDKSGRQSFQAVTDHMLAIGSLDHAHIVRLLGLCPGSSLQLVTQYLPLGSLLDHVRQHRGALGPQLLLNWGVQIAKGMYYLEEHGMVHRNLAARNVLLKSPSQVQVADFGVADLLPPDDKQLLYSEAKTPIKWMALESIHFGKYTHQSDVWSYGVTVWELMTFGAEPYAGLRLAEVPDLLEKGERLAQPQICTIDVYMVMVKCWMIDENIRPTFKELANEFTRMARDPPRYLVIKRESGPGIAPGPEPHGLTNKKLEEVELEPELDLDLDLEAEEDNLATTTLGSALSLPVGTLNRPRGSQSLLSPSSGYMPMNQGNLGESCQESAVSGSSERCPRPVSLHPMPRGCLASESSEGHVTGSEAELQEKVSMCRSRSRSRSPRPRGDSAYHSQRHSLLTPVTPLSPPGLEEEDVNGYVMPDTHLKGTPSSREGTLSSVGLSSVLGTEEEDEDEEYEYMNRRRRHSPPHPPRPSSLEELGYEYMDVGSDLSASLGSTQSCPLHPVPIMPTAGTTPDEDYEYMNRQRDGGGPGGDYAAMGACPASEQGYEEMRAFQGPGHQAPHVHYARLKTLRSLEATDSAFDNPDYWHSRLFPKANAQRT
# Experiment: cell-based or functional assay
Binder,BT474 pHER3 % inhibition,BT474 pHER3 IC50,MCF7 pHER3 % inhibition,MCF7 pHER3 IC50,SK-Br-3 pHER3 % inhibition,SK-Br-3 pHER3 IC50
B1,70%,431 pM,74%,277 pM,77%,124 pM
B2,56%,364 pM,–,–,76%,62 pM
B3,60%,19500 pM,–,–,77%,107 pM
B4,41%,271 pM,–,–,70%,90 pM

# Biological target: T1, Human HER3, endogenous, on human cancer …
# Experiment: cell-based or functional assay
# Remark: another data set of the same source
Binder,BT-474 pAkt (S473) % inhibition,BT-474 pAkt (S473) IC50,MCF7 pAkt (S473) % inhibition,MCF7 pAkt (S473) IC50,SK-Br-3 pAkt (S473) % inhibition,SK-Br-3 pAkt (S473) IC50
B1,81%,274 pM,76%,248 pM,91%,60 pM
B2,83%,–,–,–,86%,52 pM
B3,76%,378 pM,–,–,84%,76 pM
B4,86%,291 pM,–,–,86%,63 pM

# Biological target: T1, Human HER3, endogenous, on human cancer …
# Experiment: cell-based or functional assay
# Remark: another data set of the same source
Binder,BT-474 proliferation % inhibition,BT-474 proliferation IC50,MCF7 proliferation % inhibition,MCF7 proliferation IC50,SK-Br-3 proliferation % inhibition,SK-Br-3 proliferation IC50
B1,35%,6260 pM,49%,151 pM,41%,230 pM
B2,36%,560 pM,–,–,48%,134 pM
B3,36%,671 pM,–,–,49%,326 pM
B4,37%,546 pM,–,–,45%,53 pM

# Biological target: T2, Hu HER3: CD33-[Human HER3, residues 20-640]-TAG (human, UniProt P21860 20-640)
# T2 construct: also called hu HER3-Tag; HER3-Tag; not shown: C-terminal TAG (e.g., FLAG TAG)
# T2 sequence (P21860 20-640): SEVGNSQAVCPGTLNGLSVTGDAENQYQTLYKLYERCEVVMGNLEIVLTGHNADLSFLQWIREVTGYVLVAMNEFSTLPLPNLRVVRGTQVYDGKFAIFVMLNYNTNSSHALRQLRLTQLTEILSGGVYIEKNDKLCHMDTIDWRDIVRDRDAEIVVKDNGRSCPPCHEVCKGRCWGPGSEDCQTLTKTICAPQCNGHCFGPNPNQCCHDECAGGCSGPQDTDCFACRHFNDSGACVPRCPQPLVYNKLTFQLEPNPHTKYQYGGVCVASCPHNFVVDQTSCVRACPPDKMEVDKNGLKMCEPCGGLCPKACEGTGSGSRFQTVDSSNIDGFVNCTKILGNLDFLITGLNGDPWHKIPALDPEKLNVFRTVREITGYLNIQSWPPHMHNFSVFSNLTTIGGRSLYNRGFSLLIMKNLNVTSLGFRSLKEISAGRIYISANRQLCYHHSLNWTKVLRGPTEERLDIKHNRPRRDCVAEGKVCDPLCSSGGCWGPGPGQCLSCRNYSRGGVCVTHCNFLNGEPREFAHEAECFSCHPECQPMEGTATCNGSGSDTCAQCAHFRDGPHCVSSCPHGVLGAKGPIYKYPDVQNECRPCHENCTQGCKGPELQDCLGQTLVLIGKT
# Experiment: SET, IgG vs soluble HER3-Tag
# Experimental: Affinity determination in solution was essentially performed as previously described (Friguet et al., (1985) J Immunol Methods 77:305-19). In order to improve the sensitivity and accuracy of the SET method, it was transferred from classical ELISA to ECL based technology (Haenel et al., (2005) Anal Biochem 339:182-84).
# The data was evaluated with XLfit software (ID Business Solutions) applying customized fitting models.
# Antibody affinity was determined by solution equilibrium titration (SET) as described above. The results are summarized in Table 3 and example titration curves for MOR12616 and MOR12925 are contained in FIG. 1.
row,Binder,Kd
1,B1,51 pM
2,B2,28 pM
3,B3,27 pM
4,B4,25 pM
